For experiment [1], the target named is +315N ClpX^ΔN (E. coli) (UniProt P0A6H1).
Experiment [2] has as its target T66C P388C ClpX^ΔN (E. coli) (UniProt P0A6H1). Kind of experiment: cross-linking.
The target of experiment [3] is T66C P388C E109C N331C ClpX^ΔN (E. coli) (UniProt P0A6H1). Kind of experiment: cross-linking.
The target in experiment [4] is Δ315N ClpX^ΔN (E. coli) (UniProt P0A6H1).

This passage reports stoichiometry N, percent of the protein as disulfide-bonded circular hexamer after oxidation and percent of the protein as circular hexamer after oxidation results from paper PMC3372766.

By stoichiometry N is commonly meant the number of molecules, sites or subunits per partner or assembly. As for “+315N ClpX^ΔN (from UniProt P0A6H1 61-423) (enzyme)”, the stoichiometry N in experiment [1] is 6.
Regarding “T66C P388C ClpX^ΔN (from UniProt P0A6H1 61-423) (enzyme)”, in experiment [2], the percent of the protein as disulfide-bonded circular hexamer after oxidation is 75% and the stoichiometry N is 6.
As for “T66C P388C E109C N331C ClpX^ΔN (from UniProt P0A6H1 61-423) (enzyme)”, in experiment [3], the percent of the protein as circular hexamer after oxidation was > 90% and the stoichiometry N worked out at 6.
For “Δ315N ClpX^ΔN (from UniProt P0A6H1 61-423) (enzyme)”, in experiment [4], the stoichiometry N stood at 6.
